The text below walks through data of patent US20080220450A1 (published 2008).

The target of the first assay is HLA-DR6(13) (human). Kind of assay: binding to purified HLA.
NGIEWAIANNMDVIN [B. amyloliquifaciens subtilisin BPN' Y217L epitope peptide, amino acids 109-123]: the 50% inhibitory concentration (IC50) amounted to 9.8 nM.

Molecule SYPARYANAMAVGAT [B. lentus subtilisin epitope peptide, amino acids 160-174] came in with an IC50 of 559 nM.

GSISYPARYANAMAV [B. lentus subtilisin epitope peptide, amino acids 157-171] yielded an IC50 of 2010 nM.

The target in the next assay is DRB1*0701 (DR7). Nature of the assay: binding to purified HLA.
As to NGIEWAIANNMDVIN [BPN' Y217L .109], the IC50 was 58 nM.

For the molecule GSISYPARYANAMAV [B. lentus 157], the IC50 is 724 nM.

In turn, SYPARYANAMAVGAT [B. lentus .160] showed an IC50 of 138 nM.

For GTVAALNNSIGVLGV [BPN' Y217L .70], the IC50 is 154 nM.

For a further assay, the target named is DRB1*0802 (DR8w2). Nature of the assay: binding to purified HLA.
As for NGIEWAIANNMDVIN [BPN' Y217L .109], the IC50 turned out to be 2190 nM.

GSISYPARYANAMAV [B. lentus 157] showed an IC50 greater than 16300 nM.

Consider SYPARYANAMAVGAT [B. lentus .160], for which the IC50 is 2030 nM.

Turning to GTVAALNNSIGVLGV [BPN' Y217L .70], the IC50 came to 1710 nM.

Another assay has as its target DRB1*0901 (DR9). Nature of the assay: binding to purified HLA.
For NGIEWAIANNMDVIN [BPN' Y217L .109], the IC50 was 43 nM.

In the case of GSISYPARYANAMAV [B. lentus 157], the IC50 was 1480 nM.

On to SYPARYANAMAVGAT [B. lentus .160], for which the IC50 stood at 164 nM.

Molecule GTVAALNNSIGVLGV [BPN' Y217L .70] displayed an IC50 of 46 nM.

The target of the next assay is DRB1*1201 (DR5w12). Nature of the assay: binding to purified HLA.
In turn, NGIEWAIANNMDVIN [BPN' Y217L .109] had an IC50 of 1240 nM.

GTVAALNNSIGVLGV [BPN' Y217L .70] gave an IC50 of 80 nM.

A further assay has as its target DRB1*0404 (DR4w14). Nature of the assay: binding to purified HLA.
The molecule NGIEWAIANNMDVIN [BPN' Y217L .109] returned an IC50 of 166 nM.

Consider GSISYPARYANAMAV [B. lentus 157], for which the 50% inhibitory concentration (IC50) was found to be 7580 nM.

SYPARYANAMAVGAT [B. lentus .160]: the IC50 turned out to be 5540 nM.

GTVAALNNSIGVLGV [BPN' Y217L .70] came in with an IC50 of 5.7 nM.

For the next assay, the target named is DRB1*0405 (DR4w15). Kind of assay: binding to purified HLA.
As to NGIEWAIANNMDVIN [BPN' Y217L .109], the IC50 is 37 nM.

Regarding GSISYPARYANAMAV [B. lentus 157], the IC50 turned out to be 6780 nM.

SYPARYANAMAVGAT [B. lentus .160] showed an IC50 of 1350 nM.

As to GTVAALNNSIGVLGV [BPN' Y217L .70], the IC50 stood at 166 nM.

The target of another assay is DQA1*0301/DQB1*0301 (DQ3.1). Nature of the assay: binding to purified HLA.
Take NGIEWAIANNMDVIN [BPN' Y217L .109]: the IC50 was found to be 2180 nM.

GSISYPARYANAMAV [B. lentus 157] came in with a 50% inhibitory concentration (IC50) of 6010 nM.

SYPARYANAMAVGAT [B. lentus .160]: the IC50 amounted to 63 nM.

In turn, GTVAALNNSIGVLGV [BPN' Y217L .70] yielded an IC50 of 440 nM.

In the next assay the target is DRB1*0101 (DR1) (human, UniProt P01903 26-254). Nature of the assay: binding to purified HLA.
In turn, NGIEWAIANNMDVIN [BPN' Y217L .109] had an IC50 of 8.8 nM.

As for GSISYPARYANAMAV [B. lentus 157], the IC50 turned out to be 1060 nM.

For the molecule SYPARYANAMAVGAT [B. lentus .160], the IC50 came out at 13 nM.

GTVAALNNSIGVLGV [BPN' Y217L .70]: the IC50 turned out to be 6.5 nM.

Another assay deals with DQA1*0301/DQB1*0302 (DQ3.2). Nature of the assay: binding to purified HLA.
Molecule NGIEWAIANNMDVIN [BPN' Y217L .109] displayed an IC50 of 80 nM.

Consider GSISYPARYANAMAV [B. lentus 157], for which the IC50 came to 5010 nM.

As to SYPARYANAMAVGAT [B. lentus .160], the IC50 is 1050 nM.

For GTVAALNNSIGVLGV [BPN' Y217L .70], the IC50 is 2070 nM.

The next assay deals with DRB5*0101 (DR2w2β2). Nature of the assay: binding to purified HLA.
NGIEWAIANNMDVIN [BPN' Y217L .109] displayed an IC50 of 1020 nM.

SYPARYANAMAVGAT [B. lentus .160] yielded an IC50 of 1730 nM.

In the case of GTVAALNNSIGVLGV [BPN' Y217L .70], the IC50 came out at 15700 nM.

A further assay addresses DQA1*0501/DQB1*0201 (DQ2). Nature of the assay: binding to purified HLA.
For the molecule NGIEWAIANNMDVIN [BPN' Y217L .109], the IC50 was found to be 97 nM.

GSISYPARYANAMAV [B. lentus 157] displayed an IC50 of 6160 nM.

Turning to SYPARYANAMAVGAT [B. lentus .160], the IC50 is 1300 nM.

Molecule GTVAALNNSIGVLGV [BPN' Y217L .70] had a half-maximal inhibitory concentration (IC50) of 670 nM.

A further assay addresses DRB4*0101 (DRw53). Kind of assay: binding to purified HLA.
In turn, NGIEWAIANNMDVIN [BPN' Y217L .109] came in with an IC50 of 1070 nM.

Molecule GSISYPARYANAMAV [B. lentus 157] returned an IC50 greater than 9670 nM.

SYPARYANAMAVGAT [B. lentus .160] registered an IC50 of 8260 nM.

Molecule GTVAALNNSIGVLGV [BPN' Y217L .70] displayed a 50% inhibitory concentration (IC50) of 31 nM.

For another assay, the target named is DRB1*1501 (DR2w2β1) (human). Nature of the assay: binding to purified HLA.
With NGIEWAIANNMDVIN [BPN' Y217L .109], the half-maximal inhibitory concentration (IC50) is 683 nM.

The molecule GSISYPARYANAMAV [B. lentus 157] showed an IC50 of 865 nM.

Consider GTVAALNNSIGVLGV [BPN' Y217L .70], for which the IC50 came out at 21 nM.

Another assay deals with DRB1*0401 (DR4w4). Kind of assay: binding to purified HLA.
Molecule NGIEWAIANNMDVIN [BPN' Y217L .109] displayed an IC50 of 30 nM.

For GSISYPARYANAMAV [B. lentus 157], the half-inhibitory concentration (IC50) was 4790 nM.

Regarding SYPARYANAMAVGAT [B. lentus .160], the half-maximal inhibitory concentration (IC50) was 142 nM.

In turn, GTVAALNNSIGVLGV [BPN' Y217L .70] returned an IC50 of 33 nM.

A further assay deals with DRB1*1101 (DR5w11). Kind of assay: binding to purified HLA.
Molecule NGIEWAIANNMDVIN [BPN' Y217L .109] returned an IC50 of 3020 nM.

SYPARYANAMAVGAT [B. lentus .160]: the IC50 came out at 5550 nM.

On to GTVAALNNSIGVLGV [BPN' Y217L .70], for which the IC50 is 2380 nM.

The next assay concerns the target DRB1*0301 (DR3w17). Kind of assay: binding to purified HLA.
Consider GSISYPARYANAMAV [B. lentus 157], for which the IC50 was found to be 16400 nM.

GTVAALNNSIGVLGV [BPN' Y217L .70] returned an IC50 of 8740 nM.

Another assay deals with DRB3*0101 (DR52a). Kind of assay: binding to purified HLA.
The molecule NGIEWAIANNMDVIN [BPN' Y217L .109] yielded an IC50 of 119 nM.

As for GSISYPARYANAMAV [B. lentus 157], the IC50 is greater than 9430 nM.

With SYPARYANAMAVGAT [B. lentus .160], the IC50 stood at 6160 nM.

Consider GTVAALNNSIGVLGV [BPN' Y217L .70], for which the IC50 was found to be 2010 nM.

In general, IC50 refers to the concentration that gives 50% inhibition.
